The test concerns the target SELENOF’-YFP (human selenoprotein F with Sec changed to Cys, fused to enhanced yellow fluorescence protein) (human) (UniProt O60613). Put plainly: FRET or BRET; acceptor photobleaching in HEK293T cells co-transfected with pEYFP-N1 and pECFP-C1 constructs; YFP bleached at 515 nm, CFP read before and after; confocal microscope.
Chain of UniProt O60613 (O60613 32-165): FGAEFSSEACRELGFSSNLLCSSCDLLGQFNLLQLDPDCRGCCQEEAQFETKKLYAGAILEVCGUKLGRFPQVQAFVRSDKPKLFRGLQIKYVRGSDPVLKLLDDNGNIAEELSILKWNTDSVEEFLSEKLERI

B1: CFP-RDH11 (human retinol dehydrogenase 11 fused to cyan fluorescence protein) (enzyme)
chain: VELMFPLLLLLLPFLLYMAAPQIRKMLSSGVCTSTVQLPGKVVVVTGANTGIGKETAKELAQRGARVYLACRDVEKGELVAKEIQTTTGNQQVLVRKLDLSDTKSIRAFAKGFLAEEKHLHVLINNAGVMMCPYSKTADGFEMHIGVNHLGHFLLTHLLLEKLKESAPSRIVNVSSLAHHLGRIHFHNLQGEKFYNAGLAYCHSKLANILFTQELARRLKGSGVTTYSVHPGTVQSELVRHSSFMRWMWWLFSFFIKTPQQGAQTSLHCALTEGLEILSGNHFSDCHVAWVSAQARNETIARRLWDVSCDLLGLPID
With B1, the FRET energy transfer efficiency was 29.2%; the estimated distance between donor and acceptor (FRET) was 5.51 nm.

These data come from paper PMC5778809.
